Data set [1] is described as follows: melting temperature; UV melt of duplexes.
Data set [2] in a line: melting temperature; melt of duplexes. To be noted: sodium 0.0675 M; strand 1 µM.

For orientation: Tm means the temperature at the midpoint of the melting transition.

As to “AGCTGCAGTGGATGTGAGAA+TTCTCACATCCACTGCAGCT ((((((((((((((((((((+))))))))))))))))))))”, the Tm in data set [1] (sodium 0.07 M, strand 2 µM) amounted to 59.7 °C; in data set [1] (sodium 0.12 M, strand 2 µM), 63.5 °C; in data set [1] (sodium 0.22 M, strand 2 µM), 67.6 °C; in data set [1] (sodium 0.62 M, strand 2 µM) it was 71.3 °C; in data set [1] (sodium 1.02 M, strand 2 µM) it was 73.1 °C.
In the case of “AAATATAAGAATTCTTATATTT+AAATATAAGAATTCTTATATTT ((((((((((((((((((((((+))))))))))))))))))))))”, the Tm in data set [1] (sodium 0.12 M, strand 7 µM) was 48.9 °C.
Regarding “CGACGTGCCTAATGTGCTG+CAGCACATCATGCACGTCG ((((((((.(.((((((((+)))))))).).))))))))”, the Tm in data set [2] was found to be 48.5 °C.
Consider “CGACGTGCCAAATGTGCTG+CAGCACATAAAGCACGTCG ((((((((...((((((((+))))))))...))))))))”, for which, in data set [2], the Tm turned out to be 49.9 °C.
Still for that read-out and setting: the value for “CGACGTGCGAGATGTGCTG+CAGCACATCGCGCACGTCG (((((((((.(((((((((+))))))))).)))))))))” was 62.5 °C; that for “CGACGTGCGGGATGTGCTG+CAGCACATAGGGCACGTCG ((((((((...((((((((+))))))))...))))))))” was 50.1 °C.
Same read-out and setting: the value for “CGACGTGCCCTATGTGCTG+CAGCACATTTGGCACGTCG (((((((((..((((((((+))))))))..)))))))))” was 54.1 °C.
The same measure, in the same setting: the value for “CGACGTGCTGAATGTGCTG+CAGCACATAAAGCACGTCG (((((((((..((((((((+))))))))..)))))))))” was 55.5 °C; that for “CGACGTGCTTTATGTGCTG+CAGCACATGTGGCACGTCG ((((((((...((((((((+))))))))...))))))))” was 49.6 °C.
With “CGACGTGCTCTATGTGCTG+CAGCACATTCGGCACGTCG ((((((((...((((((((+))))))))...))))))))”, the Tm in data set [2] is 48.7 °C.
For the substance “CGACGTGCATGATGTGCTG+CAGCACATTAGGCACGTCG ((((((((.(.((((((((+)))))))).).))))))))”, the Tm in data set [2] was 54 °C.
The same measure, in the same setting: the value for “CGACGTGCAAGATGTGCTG+CAGCACATTCCGCACGTCG ((((((((...((((((((+))))))))...))))))))” was 49.4 °C.
On the same count and under the same terms, the value for “CGACGTGCGAAATGTGCTG+CAGCACATCCAGCACGTCG ((((((((...((((((((+))))))))...))))))))” was 50.8 °C; that for “CGACGTGCTGCATGTGCTG+CAGCACATGCAGCACGTCG (((((((((((((((((((+)))))))))))))))))))” was 67.5 °C.
Same read-out and setting: the value for “CGACGTGCCCGATGTGCTG+CAGCACATACCGCACGTCG ((((((((...((((((((+))))))))...))))))))” was 47.7 °C.
In the case of “CGACGTGCCGGATGTGCTG+CAGCACATTACGCACGTCG ((((((((...((((((((+))))))))...))))))))”, the Tm in data set [2] worked out at 50.1 °C.
The same measure, in the same setting: the value for “CGACGTGCGTTATGTGCTG+CAGCACATGAGGCACGTCG ((((((((.(.((((((((+)))))))).).))))))))” was 54.1 °C.
Same read-out and setting: the value for “CGACGTGCAGAATGTGCTG+CAGCACATATTGCACGTCG (((((((((..((((((((+))))))))..)))))))))” was 50.5 °C; that for “CGACGTGCTTAATGTGCTG+CAGCACATTTCGCACGTCG ((((((((..(((((((((+)))))))))..))))))))” was 51 °C.
Still for that read-out and setting: the value for “CGACGTGCTCTATGTGCTG+CAGCACATCTGGCACGTCG ((((((((...((((((((+))))))))...))))))))” was 49.5 °C; that for “CGACGTGCCATATGTGCTG+CAGCACATATGGCACGTCG (((((((((((((((((((+)))))))))))))))))))” was 63 °C.
As to “CGACGTGCAGCATGTGCTG+CAGCACATCCGGCACGTCG ((((((((.(.((((((((+)))))))).).))))))))”, the Tm in data set [2] is 49 °C.
Same read-out and setting: the value for “CGACGTGCTCGATGTGCTG+CAGCACATAATGCACGTCG ((((((((...((((((((+))))))))...))))))))” was 49.7 °C; that for “CGACGTGCCGCATGTGCTG+CAGCACATCTTGCACGTCG ((((((((...((((((((+))))))))...))))))))” was 47.4 °C.
The same measure, in the same setting: the value for “CGACGTGCGTCATGTGCTG+CAGCACATACTGCACGTCG ((((((((...((((((((+))))))))...))))))))” was 50.9 °C; that for “CGACGTGCCTTATGTGCTG+CAGCACATTGAGCACGTCG ((((((((...((((((((+))))))))...))))))))” was 49.6 °C; that for “CGACGTGCGACATGTGCTG+CAGCACATGAGGCACGTCG ((((((((..(((((((((+)))))))))..))))))))” was 55.3 °C.
The same measure, in the same setting: the value for “CGACGTGCCGCATGTGCTG+CAGCACATCTGGCACGTCG (((((((((..((((((((+))))))))..)))))))))” was 54.2 °C; that for “CGACGTGCAACATGTGCTG+CAGCACATGTTGCACGTCG (((((((((((((((((((+)))))))))))))))))))” was 64.5 °C.
“CGACGTGCGTCATGTGCTG+CAGCACATCTAGCACGTCG ((((((((...((((((((+))))))))...))))))))”: the Tm in data set [2] turned out to be 51.5 °C.
Turning to “CGACGTGCGCTATGTGCTG+CAGCACATGCTGCACGTCG ((((((((...((((((((+))))))))...))))))))”, the melting temperature (Tm) in data set [2] was 51.5 °C.
Same read-out and setting: the value for “CGACGTGCCTAATGTGCTG+CAGCACATGACGCACGTCG ((((((((.(.((((((((+)))))))).).))))))))” was 46.4 °C; that for “CGACGTGCTCTATGTGCTG+CAGCACATGACGCACGTCG ((((((((...((((((((+))))))))...))))))))” was 47 °C; that for “CGACGTGCCCAATGTGCTG+CAGCACATACTGCACGTCG ((((((((...((((((((+))))))))...))))))))” was 47.5 °C.
On the same count and under the same terms, the value for “CGACGTGCTAGATGTGCTG+CAGCACATAATGCACGTCG ((((((((...((((((((+))))))))...))))))))” was 50.6 °C; that for “CGACGTGCGAAATGTGCTG+CAGCACATCTGGCACGTCG ((((((((.(.((((((((+)))))))).).))))))))” was 50.6 °C; that for “CGACGTGCCACATGTGCTG+CAGCACATGGGGCACGTCG (((((((((.(((((((((+))))))))).)))))))))” was 63.6 °C.
Regarding “CGACGTGCCACATGTGCTG+CAGCACATCGGGCACGTCG (((((((((..((((((((+))))))))..)))))))))”, the Tm in data set [2] was found to be 53.9 °C.
On the same count and under the same terms, the value for “CGACGTGCGAGATGTGCTG+CAGCACATAATGCACGTCG ((((((((...((((((((+))))))))...))))))))” was 52 °C; that for “CGACGTGCATCATGTGCTG+CAGCACATCGAGCACGTCG ((((((((...((((((((+))))))))...))))))))” was 48.9 °C.
For the substance “CGACGTGCCTTATGTGCTG+CAGCACATGATGCACGTCG ((((((((.(.((((((((+)))))))).).))))))))”, the Tm in data set [2] was 50.1 °C.
Still for that read-out and setting: the value for “CGACGTGCTATATGTGCTG+CAGCACATCATGCACGTCG ((((((((...((((((((+))))))))...))))))))” was 50.2 °C.

(Values after the array DNA melting data of Ke et al..)
